First the molecules themselves.
B1: ustekinumab (trade name Stelara) (antibody, V domains shown)
VH: EVQLVQSGAEVKKPGESLKISCKGSGYSFTTYWLGWVRQMPGKGLDWIGIMSPVDSDIRYSPSFQGQVTMSVDKSITTAYLQWNSLKASDTAMYYCARRRPGQGYFDFWGQGTLVTVSS
VL: DIQMTQSPSSLSASVGDRVTITCRASQGISSWLAWYQQKPEKAPKSLIYAASSLQSGVPSRFSGSGSGTDFTLTISSLQPEDFATYYCQQYNIYPYTFGQGTKLEIK
B2: H5L10 (antibody, human IgG1, kappa, V domains shown)
VH: EVQLVQSGAEVKKPGESLKISCQSSGYSFTTYWIGWVRQMPGQGLEWIGIMSPVDSDIRYNPMFRGQVTMSVDKSSSTAYLQWSSLKASDTAMYYCARRRPGQGYFDFWGQGTMVTVSS
VL: EIVLTQSPATLSASPGERATISCRASQSVGSWLAWYQQKPGQAPRSLIYAASNLQSGIPARFSGSGSGTDFTLTISSLEPEDFAVYYCQQYNIYPYTFGQGTRLEIKR
notes: IgG1/kappa
B3: H5L11 (antibody, human IgG1, kappa, V domains shown)
VH: EVQLVQSGAEVKKPGESLKISCQSSGYSFTTYWIGWVRQMPGQGLEWIGIMSPVDSDIRYNPMFRGQVTMSVDKSSSTAYLQWSSLKASDTAMYYCARRRPGQGYFDFWGQGTMVTVSS
VL: EIVLTQSPATLSASPGERATISCRASQSVSSWLAWYQQKPGQAPRSLIYSASNLQSGIPARFSGSGSGTDFTLTISSLEPEDFAVYYCQQYNIYPYTFGQGTRLEIKR
notes: IgG1/kappa
B4: H5L14 (antibody, human IgG1, kappa, V domains shown)
VH: EVQLVQSGAEVKKPGESLKISCQSSGYSFTTYWIGWVRQMPGQGLEWIGIMSPVDSDIRYNPMFRGQVTMSVDKSSSTAYLQWSSLKASDTAMYYCARRRPGQGYFDFWGQGTMVTVSS
VL: EIVLTQSPATLSASPGERATISCRASQSVSSWLAWYQQKPGQAPRSLIYAASNLQSGIPARFSGSGSGTDFTLTISSLEPEDFAVYYCQQYNIYPFTFGQGTRLEIKR
notes: IgG1/kappa
B5: H5L12 (antibody, human IgG1, kappa, V domains shown)
VH: EVQLVQSGAEVKKPGESLKISCQSSGYSFTTYWIGWVRQMPGQGLEWIGIMSPVDSDIRYNPMFRGQVTMSVDKSSSTAYLQWSSLKASDTAMYYCARRRPGQGYFDFWGQGTMVTVSS
VL: EIVLTQSPATLSASPGERATISCRASQSVSSWLAWYQQKPGQAPRSLIYAASNRQSGIPARFSGSGSGTDFTLTISSLEPEDFAVYYCQQYNIYPYTFGQGTRLEIKR
notes: IgG1/kappa

For orientation: EC50 means the concentration that produces a half-maximal response. Low readings indicate a more potent agent, high ones a less potent agent.

In one assay the target is T1, IL-12 (Human IL12 (His Tag)), Sino Biological Cat. No. CT-050-H08H-20 (human, UniProt P29460 23-328; P29459 23-219).
T1 construct: Bought His-tagged p35/p40 heterodimer
T1 sequence (looked up) 1: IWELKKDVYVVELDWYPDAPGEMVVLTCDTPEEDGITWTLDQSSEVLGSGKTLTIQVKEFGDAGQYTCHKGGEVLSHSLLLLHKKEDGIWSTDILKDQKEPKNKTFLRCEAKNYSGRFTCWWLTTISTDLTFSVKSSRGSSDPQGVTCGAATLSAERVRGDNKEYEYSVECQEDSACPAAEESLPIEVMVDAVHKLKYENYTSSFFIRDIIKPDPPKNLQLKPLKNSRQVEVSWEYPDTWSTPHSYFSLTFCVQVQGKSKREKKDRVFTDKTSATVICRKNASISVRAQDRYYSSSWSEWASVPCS
T1 sequence (looked up) 2: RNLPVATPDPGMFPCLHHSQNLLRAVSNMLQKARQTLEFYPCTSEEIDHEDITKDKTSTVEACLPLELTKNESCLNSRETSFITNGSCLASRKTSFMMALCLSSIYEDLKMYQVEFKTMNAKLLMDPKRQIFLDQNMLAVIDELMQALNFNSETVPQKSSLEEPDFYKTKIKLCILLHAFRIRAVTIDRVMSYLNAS
As to the kind of experiment: FACS competition, IL12-His (40 nM mixed 1:1) on 293T-IL-12RB1&IL-23R cells. Here is the method:
200 μL of 1% PBSA was added into each sample, and the mixture was centrifuged at 1200 rpm for 5 min to discard the supernatant. According to experiment design, correspondingly diluted antibody (highest final concentration of 60 μg/mL, 3-fold dilution, 8 concentrations in total) and IL12-His (Sino Biological, Cat. No.: CT-050-H08H-20) (40 nM) were mixed at a ratio of 1:1, and a blank control was set. The mixture of antibody and IL12 was incubated on ice for 30 min and then added to the cell precipitate at 100 μL/sample. The resulting mixture was well mixed and incubated on ice for 60 min. 200 μL of 1% PBSA was added, and the mixture was centrifuged at 1200 rpm for 5 min to discard the supernatant, and then washed twice. THETM His tag antibody (FITC) (Genscript, Cat. No.: A01620) was diluted at a ratio of 1:500 and added to each tube at 100 μL. The mixture was well mixed and incubated on ice for 40 min in the absence of light. 200 μL of 1% PBSA was added, and the mixture was centrifuged at 1200 rpm for 5 min to discard the supernatant, and then washed twice. 1% PBSA was added at 200 μL/tube, and the cells were resuspended and transferred to a flow cytometry tube for testing.
For the molecule B1, the EC50 was 1.58 µg/mL.

A further assay addresses T1, IL-12 (Human IL12 (His Tag)), Sino …. As to the kind of experiment: FACS competition, IL-12-His 20 nM on 293T-IL-12RB1&IL-23R cells. Here is the method:
200 μL of 1% PBSA was added into each sample, and the mixture was centrifuged at 700×g for 5 min to discard the supernatant. According to experiment design, correspondingly diluted antibody (highest final concentration of 30 μg/mL, 3-fold dilution, 8 concentrations in total) and human IL-12 (Sino Biological, Cat. No.: CT-050-H08H-20) (final concentration of 20 nM) were mixed at a ratio of 1:1, and a blank control was set. The mixture of antibody and human IL12 was incubated on ice for 30 min and then added to the cell precipitate at 100 μL/sample. The resulting mixture was well mixed and incubated on ice for 60 min. 200 μL of 1% PBSA was added, and the mixture was centrifuged at 700×g for 5 min to discard the supernatant, and then washed twice. Alexa Fluor® 488 anti-His tag antibody (Biolegend, Cat. No.: 652509) was diluted at a ratio of 1:400 and added to each tube at 100 μL. The mixture was well mixed and incubated on ice for 40 min in the absence of light. 200 μL of 1% PBSA was added, and the mixture was centrifuged at 700×g for 5 min to discard the supernatant, and then washed twice. 1% PBSA was added at 200 μL/tube, and the cells were resuspended and transferred to a flow cytometry tube for testing.
On to B1, for which it took 0.377 µg/mL to reach a half-maximal effect (EC50). On the same count and under the same terms, under B2 stands 0.331 µg/mL. Same read-out and setting: for B3 the value was 0.414 µg/mL; for B4, 0.532 µg/mL. On to B5, for which the EC50 was 0.317 µg/mL.
